Experiment [1] addresses Arc40p (LexA two-hybrid bait) (S. cerevisiae) (UniProt P38328). The experiment is described as follows: two-hybrid.
In experiment [2] the target is Arc40p-HA (S. cerevisiae) (UniProt P38328). The experiment is described as follows: co-IP.
Another experiment has as its target Bee1p-HA (S. cerevisiae). In words: co-IP.
Experiment [3] concerns the target Bee1p (1-633) (S. cerevisiae). The experiment is described as follows: two-hybrid.
The target of experiment [4] is Arc19p (LexA two-hybrid bait) (S. cerevisiae) (UniProt P33204). In words: two-hybrid.
Experiment [5] has as its target Bee1p (1-165) (S. cerevisiae). In words: two-hybrid.
In experiment [6] the target is Bee1p (166-633) (S. cerevisiae). The experiment is described as follows: two-hybrid.
Experiment [7] addresses peptide PRP2 (…), LexA bait. The experiment is described as follows: two-hybrid.
Experiment [8] deals with peptide PRP2-1 (…), LexA bait. In words: two-hybrid.

For “Bee1p-WH2-AD (531-633) (domain or fragment)”, the LacZ expression (two-hybrid) in [1] amounted to 18 Miller units.
For “Myo3p (from UniProt P36006 1-1272) (natural protein)”, the percent of the total Myo3p in the extract coimmunoprecipitated (in experiment [2]; with Bee1p-HA (S. cerevisiae)) was 1% each time.
With “Myo3p(SH3-W1157S) (from UniProt P36006 1-1272) (natural protein)”, the percent coimmunoprecipitated in experiment [2] amounted to 0.1%.
In experiment [1], “Myo3p-AD (1182-1271) (from UniProt P36006 1182-1271) (domain or fragment)” returned a LacZ expression (two-hybrid) of 151 Miller units.
On to “Myo3p-AD-32 (1239-1271) (from UniProt P36006 1239-1271) (domain or fragment)”, for which the LacZ expression (two-hybrid) in [1] turned out to be 25 Miller units.
Take “Myo3p-SH3 (1118-1188) (from UniProt P36006 1118-1188) (domain or fragment)”: the LacZ expression (two-hybrid) in [3] is 1760 Miller units.
“Myo3p-SH3(W1157S)-AD (1118-1271) (from UniProt P36006 1118-1271) (domain or fragment)” gave a LacZ expression (two-hybrid) in [1] of 366 Miller units.
“Myo3p-SH3-AD (1118-1271) (from UniProt P36006 1118-1271) (domain or fragment)”: the LacZ expression (two-hybrid) in experiment [4] was determined as 152 Miller units; in experiment [1] it was 458 Miller units; in experiment [5], 1200 Miller units; in [3], 715 Miller units; in experiment [6] it was 113 Miller units; in experiment [7] it was 210 Miller units. Further, the LacZ expression (two-hybrid) in [8] came to 219 Miller units.
“Myo3pΔAD (from UniProt P36006 1-1188) (domain or fragment)” returned a percent coimmunoprecipitated with Bee1p-HA (S. cerevisiae) of 1%.

These data come from paper PMC2174279.
